Results published in patent US9090686B2, “Antibodies for the treatment of HIV” (Pierre Fabre Medicament, priority 2009, dated 2015).

How the values were obtained:
[1] = target: T1, CXCR4 homodimer (Homo sapiens, UniProt P61073); test: BRET on HEK293 cells expressing CXCR4/Rluc+CXCR4/YFP; format: cell-based
T1 construct: expressed in transfected cells; host or cells: HEK293, transient transfection
From the text: This functional assay allows to evaluate the conformational changes induced upon SDF-1 and/or 515H7 Mab binding to CXCR4 receptor at the level of CXCR4 homodimer.
(§1) Expression vectors for the investigated interaction partners were constructed as fusion proteins with the corresponding dye (Renilla reniformis luciferase, Rluc and Yellow fluorescent protein, YFP) by applying conventional molecular biology techniques. Two days prior performing BRET experiments, HEK293 cells were transiently transfected with expression vectors coding for the corresponding BRET partners: [CXCR4/Rluc+CXCR4/YFP] to study CXCR4 homodimerization. The day after, cells were distributed in poly-lysine pre-coated white 96 MW plates in complete culture medium [DMEM supplemented with 10% FBS]. Cells were first cultivated at 37° C. with CO2 5% in order to allow cell attachment to the plate. Cells were then starved with 200 μl DMEM/well overnight Immediately prior to the BRET experiment, DMEM was removed and cells were quickly washed with PBS. Cells were then incubated in PBS in the presence or absence of antibody, 10 min at 37° C. prior to the addition of coelenterazine H 5 μM with or without SDF-1 300 nM in a final volume of 50 μl. After incubation for further 10 minutes at 37° C., light-emission acquisition at 485 nm and 530 nm was initiated using the Mithras LB940 multilabel reader (Berthold) (1 s/wavelength/well repeated 15 times at room temperature).
(§2) Calculation of BRET ratio was performed as previously described (Angers et al., 2000): [(emission530 nm)−(emission485 nm)×Cf]/(emission485 nm), where Cf=(emission530 nm)/(emission485 nm) for cells expressing the Rluc fusion protein alone under the same experimental conditions. […] For sake of readability, results are expressed in mi11iBRET units (mBU); mBU corresponds to the BRET ratio multiplied by 1000.
This functional assay allows to evaluate the conformational changes induced upon SDF-1 and/or c515H7 Mab binding to CXCR4 receptor at the level of CXCR4 homodimer.
as §1, with “Cells were then incubated in PBS in the presence or absence of antibody, 10 min at 37° C. prior to the addition of coelenterazine H 5 μM with or without SDF-1 300 nM in a final volume of 50 μl.” left out
as §2, with “milliBRET” for “mi11iBRET”, “1000. […]” for “1000.”

[2] = target: T2, human CXCR4 (Homo sapiens, UniProt P61073); test: SDF-1-induced calcium release in CHO-CXCR4 cells; format: cell-based; set-up: expressed in transfected cells; conditions: SDF-1 100 nM, recombinant CHO/CXCR4, at about 40 sec.
T2 sequence (P61073 whole entry): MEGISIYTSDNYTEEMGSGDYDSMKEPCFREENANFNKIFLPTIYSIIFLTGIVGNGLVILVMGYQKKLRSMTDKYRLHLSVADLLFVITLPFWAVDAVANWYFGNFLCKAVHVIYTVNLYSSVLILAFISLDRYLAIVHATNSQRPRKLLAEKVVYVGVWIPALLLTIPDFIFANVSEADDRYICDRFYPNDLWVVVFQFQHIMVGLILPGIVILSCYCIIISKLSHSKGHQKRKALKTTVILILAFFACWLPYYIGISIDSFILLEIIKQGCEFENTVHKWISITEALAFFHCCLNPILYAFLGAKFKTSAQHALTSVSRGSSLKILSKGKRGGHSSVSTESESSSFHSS
From the text: This functional assay was designed to monitor CXCR4 receptor signaling via stimulation of the phospholipase C pathway, inducing calcium liberation from intracellular stores from the endoplasmic reticulum.
CHO-K1 cells, stably and constitutively expressing human CXCR4 receptor were obtained upon transfection of naïve CHO-K1 cells (ATCC CCL-61) with a mammalian expression vector carrying the whole coding sequence of human CXCR4 receptor (RefSeq NM_003467). Cells were propagated in complete culture medium [DMEM-Ham's F12 supplemented with 5% fetal calf serum (FCS) and 500 μg/ml of geneticin]. Cells were plated in black 96MW plates at a density of 100,000 cells/well in appropriate culture medium. Cells were starved overnight before conducting the experiments. Cells are loaded with the fluorescent calcium dye (Fluo-4 No Wash, Invitrogen US) in loading buffer [HBSS 1×, HEPES 20 mM, Probenicid acid 25 mM] for 30 min. at 37° C. followed by 30 min. at 25° C. Stimulation by SDF-1 was performed by direct injection into each well. For antagonism experiments, 10 μl of Mab solution are added directly into the loading buffer at least 10 min. before SDF-1. Kinetic fluorescence measurements are performed on a multi-mode fluorescence microplate reader Mithras LB940 (Berthold) using the following settings: excitation at 485 nm, emission at 535 nm, excitation energy at 10000 arbitrary units. Fluorescence in each well is recorded during 0.1 second every second and for a time period of 20 sec. prior SDF-1 injection (basal signal). Then 20 μl of SDF-1 are injected and data recording follows for a time period of 2 min. Each experimental condition is performed in duplicate. Values for each well are first corrected by subtracting the basal fluorescence and the fluorescence emitted by a control well without cells. Relative data are expressed as a percentage of the maximal stimulation obtained by SDF-1 (100 nM).

[3] = system: HIV-1 primary isolate 89.6 (dual X4/R5 virus); test: Neutralization assay, multiple rounds of replication on primary PBMC, isolate 89.6; format: cell-based; conditions: single agent; 90% decrease of viral titer, multiple rounds, day 7 p24 ELISA
Description: This assay that combines serial dilutions of c515H7 Mab or Maraviroc or combination of both with serial dilutions of virus, analyzes multiple rounds of infection on PBMC (peripheral blood mononuclear cells). Briefly, quadruplicate 25-μl aliquots of serial dilutions (twofold) of c515H7 Mabs or Maraviroc or combination of both were each incubated with 25 μl of serial dilutions of virus in prehydrated 96-well filter plates (1.25-μm pore size, Durapor Dv; Millipore, Molsheim, France). A control titration of the virus (25 μl of RPMI replacing the diluted c515H7 Mabs or Maraviroc) was performed on the same plate as the titrations in the presence of dilutions of the c515H7 Mabs or Maraviroc or combination of both. After 1 h at 37° C., 25 μl of PHA-stimulated PBMC at a concentration of 4×10^6 cells/ml (pool of PHA activated PBMC from five healthy donors) was added to achieve a 75-μl final culture volume of RPMI, 10% fetal calf serum (FCS), and 20 IU of interleukin-2 (IL-2) per ml (R&D System). After 24 h at 37° C., 100 μl of the same culture medium was added. Two washings (200 μl of RPMI each) were performed by filtration on day 4 to remove the c515H7 Mabs and Maraviroc, and 200 μl of fresh culture medium was added. On day 7, the presence of p24 in the culture supernatants was measured by ELISA and compared to that of the negative controls (cultures infected with dilutions of virus and maintained in the presence of 10^−6 M zidovudine [AZT]) to determine positive wells. […]
This assay that combines serial dilutions of hz515H7 Mab or Maraviroc or combination of both with serial dilutions of virus, analyzes multiple rounds of infection on PBMC (peripheral blood mononuclear cells). […] On day 7, the presence of p24 in the culture supernatants was measured by ELISA and compared to that of the negative controls (cultures infected with dilutions of virus and maintained in the presence of 10^−6 M zidovudine [AZT]) to determine positive wells. […]

[4] = target: T2, human CXCR4; test: Cross blocking of biotinylated murine 515H7 on CXCR4 transfected NIH3T3 cells, flow cytometry; format: binding; set-up: expressed in transfected cells; host or cells: NIH3T3 (mouse fibroblasts)
Description: FIG. 19: Cross blocking of the biotinylated murine antibody 515H7 by the chimeric 515H7 and different variants of the humanized 515H7. The activity of the humanized variants of 515H7 (hz515H7) to cross block the parental murine antibody 515H7 was evaluated by flow cytometry using CXCR4 transfected NIH3T3 cells. The activity of the humanized variants was compared to the chimeric 515H7.
Binding of humanized variants of 515H7 was determined on a NIH3T3 cell line stably transfected with human CXCR4. The binding activity was evaluated by a competition assay with the biotinylated mouse antibody. In a second attempt, humanized antibodies were evaluated for their ability to inhibit binding of biotinylated SDF-1 to RAMOS cells. RAMOS cells were chosen because of their high expression of CXCR4 and low expression of CXCR7 and SDF-1.
In a first series of experiments, the anti-CXCR4 binding activities of the three first humanized variants were analysed. The VH variant 1 (VH1) was combined with the murine VL and these constructs were evaluated in their capacity to inhibit the binding of a biotinylated murine 515H7 parental antibody. The amino acid sequence of the variable domain of VH1 comprises the SEQ ID No. 90 whereas the nucleotide sequence comprises the SEQ ID No. 91. […]

T1 sequence (P61073 whole entry): as above
T1 sequence (P61073 whole entry): as above

SDF-1: Stromal-cell-Derived Factor-1, the natural ligand of CXCR4 [reference compound]
increase of BRET signal ([1]; SDF-1 300 nM): about 20% | maximal intensity of calcium signal [2]: > 140 % over basal fluorescence

Maraviroc [reference compound]
IC90 [3]: > 50 µg/mL

B1: hz515H7 VH1 VL2: humanized VH variant 1 (no back mutations) combined with variant 2 of VL (antibody, V domains shown)
VH: EVQLVESGGGLVQPGRSLRLSCTASGFTFTDNYMSWVRQAPGKGLEWVGFIRNKANGYTTEYAASVKGRFTISRDDSKSIAYLQMNSLKTEDTAVYYCARDVGSNYFDYWGQGTLVTVSS
VL: DIVMTQSPSSLAVSLGERATMSCKSSQSLFNSRTRKNYLAWYQQKPGQSPKLLIYWASARDSGVPARFTGSGSETYFTLTISRVQAEDLAVYYCMQSFNLRTFGQGTKVEIK
cross blocking of biotinylated murine 515H7, compared to chimeric 515H7 [4]: No reduction in the activity

B2: hz515H7 VH1 D76N VL2: humanized 515H7 Mab; variable domains VH1 D76N (SEQ ID No. 64) and VL2 (SEQ ID No. 65) (antibody, listed as Mus musculus, V domains shown)
VH: EVQLVESGGGLVQPGRSLRLSCTASGFTFTDNYMSWVRQAPGKGLEWVGFIRNKANGYTTEYAASVKGRFTISRDNSKSIAYLQMNSLKTEDTAVYYCARDVGSNYFDYWGQGTLVTVSS
VL: DIVMTQSPSSLAVSLGERATMSCKSSQSLFNSRTRKNYLAWYQQKPGQSPKLLIYWASARDSGVPARFTGSGSETYFTLTISRVQAEDLAVYYCMQSFNLRTFGQGTKVEIK
inhibition of SDF-1-induced BRET increase ([1]; SDF-1 100 nM): about 88%
